The supplement of paper PMC9170038

Test system: MS2 coat protein
Experiment: apparent KD of MS2 coat protein; designed switch direction (-1 OFF switch, 1 ON switch): -1; higher = weaker reporter binding
Summary of the method: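 Designed RNA switches were transcribed on Illumina chips by stalled E. coli RNA polymerase and titrated with SNAP-549-labelled MS2 coat protein from 0.7 or 1.5 nM, doubling to 3 µM. Step length ran from 0.8–1.5 h at the lowest concentration to 10–20 min at the highest. The apparent KD is the median over clusters for each design, from curve-fitted normalised cluster fluorescence.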

[1] = input ligand: microRNA oligo, concentration not stated
[2] = Eterna round: R95, input ligand: microRNA oligo, concentration not stated
[3] = Eterna round: R95, input ligand: FMN 200 uM
[4] = Eterna round: R95, input ligand: none

Sequence	apparent KD of MS2 coat protein (input ligand: FMN 200 uM)	apparent KD of MS2 coat protein [1]	apparent KD of MS2 coat protein (input ligand: none)	apparent KD of MS2 coat protein [2]	apparent KD of MS2 coat protein [3]	apparent KD of MS2 coat protein [4]
GCAGCAUAUGUAGGAUAUCUGCACGAUUAGUGCAGAGAAGGACAUGAGGAUCACCCAUGUAAUUAAGAUCAAUUAUUAAGCUGC [ENG1/4-A1] (Eterna round: R96, puzzle: Exclusion NG 1)	0.0333 µM	0.0156 µM	0.0228 µM	–	–	–
GCAGCGUAUGUAGGAUAUCGGUCAGUUUCUGAUCGAGAAGGACAUGAGGAUCACCCAUGUAUAUUCCGUCGUGAGACGGGCUGC [JL ENG1 3.69] (Eterna round: R96, puzzle: Exclusion NG 1)	0.0236 µM	0.0143 µM	0.0184 µM	–	–	–
GCAGGAUAAGUGAGGAUAUACCUCUGGAUACAGAGGUAGAAGGCACAUGAGGAUCACCCAUGUCUAUAACCUGC [Fiskers BMX 4 - 79] (puzzle: Brourd's mod of Exclusion 4)	–	–	–	0.0125 µM	–	–
GCAGGUUAAGUCAGGAUAUACCUAUGGAUACAUAGGUAGAAGGGACAUGAGGAUCACCCAUGUGACUCACCUGC [Fiskers BMX 4 - 59] (puzzle: Brourd's mod of Exclusion 4)	–	–	–	0.0251 µM	–	–
GCAUGCUGAGUUAGGAUAUGCUAGCGUUGCCGCUAGCAGAAGGAACAUGAGGAUCACCCAUGUUAGCAUGCAGU [eternacac ex4r4 #2] (Eterna round: R97, puzzle: Brourd's mod of Exclusion 4)	0.016 µM	–	0.014 µM	–	–	–
GCAUGGAAAGUGAGGAUAUACCACUGGAUACAGUGGUAGAAGGCACAUGAGGAUCACCCAUGUUCCUACCAUGC [Fiskers BMX 4 - 39] (puzzle: Brourd's mod of Exclusion 4)	–	–	–	0.015 µM	–	–
GCAUUCUGAGGAUAUACAUGAGGAUCACCCAUGUUGAGAAAUAAGAAUAAGUACUUAAGUAGAAGGCAGAGUGC [JR_Ex3_Sub074] (Eterna round: R97, puzzle: Exclusion 3)	0.0616 µM	–	0.0158 µM	–	–	–
GCCACCACAUGAGGAUCAAACAUGAGGAUCACCCAUGUAUAACAAGCUUUUUGCUCGUCUUAUAAAUAUGUGGUGGC [Electric Eye 4 - Jieux - Sensor, turn-off variant 1] (Eterna round: R97, puzzle: Sensor, turn-off variant 1)	0.014 µM	–	0.0153 µM	–	–	–
GCCAGAGCAGGAUAUUCAGUAUCACACAUGAGGAUCACCCAUGUCCACGGAAACGUGGAGGGAGAAGGGCUCUGGC [Mat - Exclusion 5 - Eli mod - D96] (puzzle: Exclusion 5)	–	–	–	0.126 µM	0.0356 µM	0.157 µM
GCCCAGCUAGGAUAUCGCACUGCAGACAUGAGGAUCACCCAUGUGAUGAGGUCUGAAUUCCGAGAAGGAGCAUGGA [Isedzaqu] (puzzle: Exclusion 5)	–	–	–	0.0221 µM	0.0666 µM	0.0267 µM
GCCCUUAUUGUUAGGAUAUAACGGAAAUACAACCGUUAGAAGGAACAUGAGGAUCACCCAUGUGCCAUACAGCC [Eternabot (Original) Solution 39] (Eterna round: R97, puzzle: Brourd's mod of Exclusion 4)	0.119 µM	–	0.0295 µM	–	–	–
GCCUCACAUGAGGAUCACCCAUGUCAGGAUAUCUAAGGCGAGGUGCAGGCACUUCGUGAGAGAAGGGACGUCAA [Ercecequ] (puzzle: Exclusion 1)	–	–	–	0.018 µM	–	–
GCCUUAUCCGUCAGGAUAUACAGCCGCUCCCUGUUGUAGAAGGGACAUGAGGAUCACCCAUGUACGUACCACCC [alecazam9] (Eterna round: R97, puzzle: Brourd's mod of Exclusion 4)	0.0291 µM	–	0.0311 µM	–	–	–
GCGAAAGCAACAAGUGAAAACAUGAGGAUCACCCAUGUCCUCAUUUGCUCGUCUUAUAAGCUAUGCGAAAGCAUAGC [Sensor 3, v1 - 10] (puzzle: Sensor v3, turn-off variant 1)	–	–	–	0.511 µM	0.0524 µM	0.0744 µM
GCGAAAGCAAGCAAGUGAAACAUGAGGAUCACCCAUGUCCUCAUUUGCUCGUCUUAUAAGCUAUGCGAAAGCAUAGC [Sensor 3, v1 - 2] (puzzle: Sensor v3, turn-off variant 1)	–	–	–	0.22 µM	0.0139 µM	0.0105 µM
GCGAAAGCAAGCAAGUGAAACAUGAGGAUCACCCAUGUCCUCGUUUGCUCGUCUUAUAAGCUAUGCGAAAGCAUAGC [Sensor 3, v1 - 4] (puzzle: Sensor v3, turn-off variant 1)	–	–	–	0.105 µM	0.0129 µM	0.0102 µM

Sequence	apparent KD of MS2 coat protein (input ligand: FMN 200 uM)	apparent KD of MS2 coat protein [1]	apparent KD of MS2 coat protein (input ligand: none)	apparent KD of MS2 coat protein [2]	apparent KD of MS2 coat protein [3]	apparent KD of MS2 coat protein [4]
GCGCAAACGCCAAAAGGCGAAACAACAUGAGGAUCACCCAUGUAGGAUAUCGAUUGCUUUGCAGUCGAGAAGGACAAAAUGCGC [JL ENG3 3.80 Mod 6] (Eterna round: R96, puzzle: Exclusion NG 3)	0.0116 µM	0.0106 µM	0.0157 µM	–	–	–
GCGCAAACGCCAAAAGGCGAAACAACAUGAGGAUCACCCAUGUAGGAUAUCGAUUGCUUUGCAGUCGAGAAGGACAUGAUGCGC [JL ENG3 3.80 Mod 2] (Eterna round: R96, puzzle: Exclusion NG 3)	0.0439 µM	0.0185 µM	0.0208 µM	–	–	–
GCGCACCUACCAAAAGGUAGGUCAACAUGAGGAUCACCCAUGUAGGAUAUCGAUUGCUUUGCAGUCGAGAAGGAUAUGAUGCGC [JL ENG3 3.80 Mod 12] (Eterna round: R96, puzzle: Exclusion NG 3)	0.0272 µM	0.0166 µM	0.024 µM	–	–	–
GCGCCAUCGUGAGAUGGCGUAACUACAUGAGGAUCACCCAUGUAGGAUAUCGAUUGCUUUGCAGUCGAGAAGGGCAAGGGAUUU [JL ENG3 3.88] (Eterna round: R96, puzzle: Exclusion NG 3)	0.0258 µM	0.0147 µM	0.0204 µM	–	–	–
GCGCCAUCGUGAGAUGGCGUAAUUACAUGAGGAUCACCCAUGUAGGAUAUCGAUUGCUUUGCAGUCGAGAAGGGCGUGAUAAGU [JL ENG3 3.71] (Eterna round: R96, puzzle: Exclusion NG 3)	0.086 µM	0.0595 µM	0.0689 µM	–	–	–
GCGCCAUCGUGAGAUGGCGUAAUUACAUGAGGAUCACCCAUGUAGGAUAUCGAUUGCUUUGCAGUCGAGAAGGGCGUGAUAAUU [JL ENG3 3.70] (Eterna round: R96, puzzle: Exclusion NG 3)	0.0777 µM	0.0525 µM	0.0755 µM	–	–	–
GCGCGCGUUGUGAGGAUAUCGGGCCCGAAAGGGCCCGAGAAGGCACAUGAGGAUCACCCAUGUAAGGUGUGUGU [-35.5, -34.8 kcal, A 23%, 0-6bis] (Eterna round: R97, puzzle: Brourd's mod of Exclusion 4)	0.619 µM	–	0.613 µM	–	–	–
GCGCGGCGUGUAGGAUAUGCGCGCGGGUCGCGCGCAGAAGGACAUGAGGAUCACCCAUGUGGCGCGCUUGGCGCGCCGCCGCGC [-48, -45 kcal and 14% A] (Eterna round: R96, puzzle: Exclusion NG 1)	0.0166 µM	0.00964 µM	0.0129 µM	–	–	–
GCGGACUCGAUCGUGAGAUCGGAGACAUGAGGAUCACCCAUGUAGGAUAUCGAUUGCUUUGCAGUCGAGAAGGGCGUGGUCCGC [JL denovo 17] (Eterna round: R96, puzzle: Exclusion NG 3)	0.152 µM	0.0981 µM	0.157 µM	–	–	–
GCGGAGUCAGGAUAUUGAAUUUAACGUACCAAUAAGGUACGCGAGAAGGGACAUGAGGAUCACCCAUGUACCGC [Mat - Exclusion 4 - Eli Mod - D35] (Eterna round: R97, puzzle: Exclusion 4)	0.0165 µM	–	0.0173 µM	–	–	–
GCGGAGUCAGGAUAUUGAAUUUAACGUACCAAUUAGGUACGCGAGAAGGGACAUGAGGAUCACCCAUGUACCGC [Eli x4 4.03] (Eterna round: R97, puzzle: Exclusion 4)	0.0114 µM	–	0.0159 µM	–	–	–
GCGGCGUAUGUAGGAUAUCGGUCAGUUUCUGAUCGAGAAGGACAUGAGGAUCACCCAUGUAAAUUACCGACUUUGUCGGGCCGC [JL ENG1 3.66] (Eterna round: R96, puzzle: Exclusion NG 1)	0.0204 µM	0.0135 µM	0.0177 µM	–	–	–
GCGUAGUAUGUAGGAUAUCGGUCAGUUUCUGAUCGAGAAGGACAUGAGGAUCACCCAUGUAAAACGACCGCUUUGUGGUUACGC [JL ENG1 3.58] (Eterna round: R96, puzzle: Exclusion NG 1)	0.0427 µM	0.0159 µM	0.0192 µM	–	–	–
GCUAAACAUGUAGGAUAUGCGUGGCGAAGCUAUGCAGAAGGACAUGAGGAUCACCCAUGUUUUAGCGUCUGCGUACAGAUGCGU [JL ENG1 1.43] (Eterna round: R96, puzzle: Exclusion NG 1)	0.318 µM	0.028 µM	0.0316 µM	–	–	–
GCUAGAGCAGGAUAUCUAGAUCCUCACAUGAGGAUCACCCAUGUAGUCGAAAGACUAAGAAGAGAAGGGCUCUAGC [Omei Ex5 E17] (Eterna round: R97, puzzle: Exclusion 5)	0.133 µM	–	0.00881 µM	–	–	–
GCUCCUCCUGUUAGGAUAUGCUUCGGGCUUCCGCAGCAGAAGGAACAUGAGGAUCACCCAUGUCAAAUAAAAUC [Brourd's mod of Ex.4 - Mod Inxebexe (Scored 85 R3.2)] (Eterna round: R97, puzzle: Brourd's mod of Exclusion 4)	0.223 µM	–	0.0762 µM	–	–	–
